Legend:
Trop2 protein = molecular target: T1, Trop2 protein (UniProt P09758 27-274); assay: ELISA, coated Trop2 protein, OD450
T1 construct: Bought recombinant protein; also called Trop2-Biotin protein (biotin-labelled, bridging ELISA)
T1 sequence (looked up): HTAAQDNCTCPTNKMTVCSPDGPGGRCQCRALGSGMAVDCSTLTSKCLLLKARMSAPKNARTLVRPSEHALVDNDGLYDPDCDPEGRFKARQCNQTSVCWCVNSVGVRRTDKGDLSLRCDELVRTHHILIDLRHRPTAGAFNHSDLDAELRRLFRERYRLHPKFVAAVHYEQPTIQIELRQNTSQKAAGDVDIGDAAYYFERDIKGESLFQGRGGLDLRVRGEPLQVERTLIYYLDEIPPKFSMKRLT
From the text: In this example, the binding properties of the CD3×Trop2 and CD3×PDL1 bispecific antibody (the production method and the amino acid sequences of the heavy and light chains were shown in Example 1) were detected by using ELISA. The CD3E&D, Trop2, or PDL1 protein was coated onto 96-well plates by inventors, and the strength of the signal after the addition of the antibody was used to determine the binding properties of the antibody and the corresponding protein.
(2) Trop2 protein (purchased from Acro) was diluted to 2 μg/ml with PBS buffer, added to a 96-well plate at a volume of 100 μL/well, and placed at 4° C. overnight. The PBS buffer in the 96-well plate was aspirated, and the plate was washed 6 times with PBST (pH 7.2 PBS containing 0.1% Tween 20) buffer. Then, 200 μL/well PBS/10% BSA was added and incubated at 37° C. for 2 h for blocking. The blocking solution was removed, and the plate was washed six times with PBST. Then, the to-be-tested bispecific antibodies, Cross3×Trop2, Cross303×Trop2, Cross307×Trop2, Cross308×Trop2, Cross309×Trop2, Cross310×Trop2, Cross311×Trop2, Cross312×Trop2, Cross313×Trop2, Cross314×Trop2, Cross316×Trop2, Cross317×Trop2, Cross318×Trop2, Cross323×Trop2, Cross325×Trop2, Cross326×Trop2, and control IgG1LALA (purchased from Bio-Tech), serially diluted with PBST/0.05% BSA, were added at 100 μL/well and incubated at 37° C. for 1 h. The reaction system was removed, and the plate was washed 6 times with PBST. Then, HRP (horseradish peroxidase)-labeled anti-human secondary antibody (Fab specific) (purchased from Sigma) diluted with PBST/0.05% BSA at 100 μL/well. After the plate was washed six times with PBST, TMB (tetramethylbenzidine) was added at 80 μL/well, and incubated at room temperature for 3 min. 4 M sulfuric acid was added at 80 μL/well to terminate the reaction. The absorbance was read at 450 nm using a microplate reader.

[1] = molecular target: T2, Trop2 on A-375-Trop2 melanoma cells (UniProt P09758 27-323, limits assumed); assay: flow cytometry, A-375-Trop2 cells, MFI [panel B]
T2 construct: whole, on cells
T2 sequence (looked up): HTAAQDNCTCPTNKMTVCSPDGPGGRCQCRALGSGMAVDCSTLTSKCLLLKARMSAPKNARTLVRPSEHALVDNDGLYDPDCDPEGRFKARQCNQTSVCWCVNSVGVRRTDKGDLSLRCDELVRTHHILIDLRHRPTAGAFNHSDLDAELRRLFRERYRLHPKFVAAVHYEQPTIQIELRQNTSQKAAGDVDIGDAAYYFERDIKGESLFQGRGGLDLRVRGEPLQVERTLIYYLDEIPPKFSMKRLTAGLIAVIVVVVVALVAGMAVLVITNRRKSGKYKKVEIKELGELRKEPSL
Protocol: (2) The tumor cells were diluted to 2×10⁶/ml with PBS and added to a 1.5 ml EP tube at a volume of 100 μl/tube, and goat serum was added thereto at 10 μl/tube. The cells were blocked at 4° C. for 30 min. The serially diluted bispecific antibodies, Cross3×Trop2, Cross303×Trop2, Cross307×Trop2, Cross308×Trop2, Cross309×Trop2, Cross310×Trop2, Cross311×Trop2, Cross312×Trop2, Cross313×Trop2, Cross314×Trop2, Cross316×Trop2, Cross317×Trop2, Cross318×Trop2, Cross323×Trop2, Cross325×Trop2, Cross326×Trop2, and Cross3×PDL1, Cross303×PDL1, Cross307×PDL1, Cross308×PDL1, Cross309×PDL1, Cross310×PDL1, Cross311×PDL1, Cross312×PDL1, Cross313×PDL1, Cross314×PDL1, Cross316×PDL1, Cross317×PDL1, Cross318×PDL1, Cross323×PDL1, Cross325×PDL1, Cross326×PDL1, and control hIgG1LALA (purchased from Bio-Tech) were added and incubated at 4° C. for 30 min. 1 ml of PBS was added to the EP tube, followed by centrifugation at 3500 rpm for 5 min at 4° C. The supernatant was discarded, and the cells were washed again with PBS. After centrifugation, the supernatant was completely discarded, and the cells were resuspended with PBS at 100 μl/tube. Alexa-647-labeled goat anti-human IgG secondary antibody (purchased from Jackson lab) was added at 1 μl/tube and incubated at 4° C. in the dark for 30 min. The cells were washed twice with PBS, and the supernatant was completely discarded after centrifugation. The cells were resuspended with PBS at 200 μl/tube and assay was performed using the flow cytometry.

CD3 on CD8 T cells = molecular target: T3, CD3 on CD8 T cells (Homo sapiens (Human), UniProt P07766 23-207); assay: flow cytometry, CD8 T cells in PBMCs, MFI [panel B]
T3 construct: Native CD3 complex on CD8 T cells among PBMCs; also called T cells (PBMCs gated with anti-human CD8 antibody)
T3 sequence (P07766 23-207 limits assumed): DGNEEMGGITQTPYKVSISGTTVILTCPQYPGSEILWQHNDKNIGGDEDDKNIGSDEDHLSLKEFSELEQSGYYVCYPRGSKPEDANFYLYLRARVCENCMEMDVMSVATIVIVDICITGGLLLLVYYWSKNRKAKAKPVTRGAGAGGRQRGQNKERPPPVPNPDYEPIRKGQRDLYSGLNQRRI
Protocol: (1) PBMCs were diluted to 2×10⁶/ml with PBS and added to a 1.5 ml EP tube at 100 μl/tube, goat serum was added thereto at 10 μl/tube. The cells were blocked at 4° C. for 30 min. The serially diluted bispecific antibodies, Cross3×Trop2, Cross303×Trop2, Cross307×Trop2, Cross308×Trop2, Cross309×Trop2, Cross310×Trop2, Cross311×Trop2, Cross312×Trop2, Cross313×Trop2, Cross314×Trop2, Cross316×Trop2, Cross317×Trop2, Cross318×Trop2, Cross323×Trop2, Cross325×Trop2, Cross326×Trop2, Cross3×PDL1, Cross313×PDL1, Cross316×PDL1, Cross325×PDL1, and control hIgG1LALA (purchased from Bio-Tech) were added and incubated at 4° C. for 30 min. 1 ml of PBS was added to the EP tube, followed by centrifugation at 3500 rpm for 5 min at 4° C. The supernatant was discarded, and the system was washed again with PBS. After centrifugation, the supernatant was discarded, and the cells were resuspended with PBS at 100 μl/tube. 1 μl/tube Alexa-647-labeled goat anti-human IgG secondary antibody (purchased from Jackson lab) and 0.5 μl/tube PerCP-Cy5.5-labeled anti-human CD8 antibody were added and incubated at 4° C. in the dark for 30 min. The cells were washed twice with PBS. After centrifugation, the supernatant was discarded. The cells were resuspended with 200 μl/tube of PBS and assay is performed by flow cytometry.

B1: Cross311×Trop2 (bispecific antibody)
scFv: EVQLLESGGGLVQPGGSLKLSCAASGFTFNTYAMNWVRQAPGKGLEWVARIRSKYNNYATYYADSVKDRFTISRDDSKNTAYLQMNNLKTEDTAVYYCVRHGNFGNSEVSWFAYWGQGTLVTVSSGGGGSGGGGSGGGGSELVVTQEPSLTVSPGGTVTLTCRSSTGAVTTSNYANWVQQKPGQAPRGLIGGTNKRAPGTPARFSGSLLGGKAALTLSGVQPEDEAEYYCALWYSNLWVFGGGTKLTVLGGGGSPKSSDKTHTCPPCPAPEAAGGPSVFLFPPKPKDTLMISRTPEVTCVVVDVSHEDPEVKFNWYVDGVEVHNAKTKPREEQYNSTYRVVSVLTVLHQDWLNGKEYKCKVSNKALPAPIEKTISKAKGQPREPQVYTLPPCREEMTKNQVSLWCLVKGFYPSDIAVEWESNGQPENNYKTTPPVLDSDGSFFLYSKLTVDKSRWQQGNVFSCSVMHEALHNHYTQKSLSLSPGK
heavy: QVQLQQSGSELKKPGASVKVSCKASGYTFTNYGMNWVKQAPGQGLKWMGWINTYTGEPTYTDDFKGRFAFSLDTSVSTAYLQISSLKADDTAVYFCARGGFGSSYWYFDVWGQGSLVTVSSASTKGPSVFPLAPSSKSTSGGTAALGCLVKDYFPEPVTVSWNSGALTSGVHTFPAVLQSSGLYSLSSVVTVPSSSLGTQTYICNVNHKPSNTKVDKKVEPKSSDKTHTCPPCPAPEAAGGPSVFLFPPKPKDTLMISRTPEVTCVVVDVSHEDPEVKFNWYVDGVEVHNAKTKPREEQYNSTYRVVSVLTVLHQDWLNGKEYKCKVSNKALPAPIEKTISKAKGQPREPQVCTLPPSREEMTKNQVSLSCAVKGFYPSDIAVEWESNGQPENNYKTTPPVLDSDGSFFLVSKLTVDKSRWQQGNVFSCSVMHEALHNHYTQKSLSLSPGK
light: DIQLTQSPSSLSASVGDRVSITCKASQDVSIAVAWYQQKPGKAPKLLIYSASYRYTGVPDRFSGSGSGTDFTLTISSLQPEDFAVYYCQQHYITPLTFGAGTKVEIKRTVAAPSVFIFPPSDEQLKSGTASVVCLLNNFYPREAKVQWKVDNALQSGNSQESVTEQDSKDSTYSLSSTLTLSKADYEKHKVYACEVTHQGLSSPVTKSFNRGEC
B1 was tested, and the “EC50 (read off the curve)” value (Trop2 protein) was roughly 0.008 µg/mL, the “EC50 (read off the curve)” value [1] was roughly 1 µg/mL and the “EC50 (read off the curve)” value (CD3 on CD8 T cells) was roughly 4 µg/mL.

— patent US20260125472A1 (HEFEI TG IMMUNOPHARMA, published 2026)
